Several values for one entry are separate records, joined by “and”; a condition that tells them apart may be missing. Equal values may be shown once.
Biological target: the molecule itself
Experiment: SEC; peptide at 43, 85 or 150 uM incubated in aqueous buffer at pH 7.0 or 8.0 at 37°C with 180 rpm agitation, aliquots filtered (0.22 um) and run on Superose 12 10/300 or Superdex 75 10/300 at room temperature, 0.75 mL/min, elution buffer as incubation buffer; oligomer size from calibration with globular protein standards

B1: Glucagon-like peptide 1, GLP-1(7–37) (peptide)
chain: HAEGTFTSDVSSYLEGQAAKEFIAWLVKGRG
notes: Glucagon-like peptide 1 (7-37), 31-residue peptide hormone cut from proglucagon; free C-terminus (-OH); 3355 Da; Forms non-covalent low-molecular-weight oligomers of varying size; written as the single chain
- stoichiometry N: 3 and 5
